No end group written: not given here. FI = 5(6)-carboxyfluorescein

Common to all, as to experiment: cell-based or functional assay
Experiment [1] addresses MBP-M1^C-mRFP-H6.
The target in experiment [2] is WT^C-Trx-H6 (AceL-TerL Int^C fused to hexahistidine-tagged thioredoxin) (UniProt P0AA25 2-109 = thioredoxin).
In experiment [3] the target is MBP-M1^C-EGFP-H6.
In experiment [4] the target is MBP-M1^C-Ubc9-H6 (murine, UniProt P63280 1-158).
Experiment [5] deals with T1, MBP-M1^C-SENP1-H6 (human, UniProt Q9P0U3 419-644).
T1 sequence (Q9P0U3 whole entry, looked up): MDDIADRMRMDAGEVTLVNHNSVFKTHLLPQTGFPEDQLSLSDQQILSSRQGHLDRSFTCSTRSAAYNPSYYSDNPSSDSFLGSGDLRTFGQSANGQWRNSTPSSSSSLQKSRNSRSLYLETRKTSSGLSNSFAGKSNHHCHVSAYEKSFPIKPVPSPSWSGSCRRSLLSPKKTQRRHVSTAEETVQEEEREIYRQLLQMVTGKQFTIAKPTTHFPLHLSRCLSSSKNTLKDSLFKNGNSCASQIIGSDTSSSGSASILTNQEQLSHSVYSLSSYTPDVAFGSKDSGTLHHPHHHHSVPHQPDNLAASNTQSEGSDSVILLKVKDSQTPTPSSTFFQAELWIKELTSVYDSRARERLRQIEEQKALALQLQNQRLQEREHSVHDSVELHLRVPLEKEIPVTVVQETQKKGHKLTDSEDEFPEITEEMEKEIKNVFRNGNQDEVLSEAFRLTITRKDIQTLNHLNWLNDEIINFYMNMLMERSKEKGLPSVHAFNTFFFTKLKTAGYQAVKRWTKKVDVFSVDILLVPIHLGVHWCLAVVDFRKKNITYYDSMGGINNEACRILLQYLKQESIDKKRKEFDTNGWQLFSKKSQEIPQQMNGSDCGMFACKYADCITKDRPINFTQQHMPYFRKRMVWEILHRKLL

Experiment [6] addresses MBP-M1^C-Gluc-H6 (Gaussia princeps).

Chain of WT^C-Trx-H6 (AceL-TerL Int^C fused to hexahistidine-tagged thioredoxin) (P0AA25 other isoform, or with tags, fused parts or gaps): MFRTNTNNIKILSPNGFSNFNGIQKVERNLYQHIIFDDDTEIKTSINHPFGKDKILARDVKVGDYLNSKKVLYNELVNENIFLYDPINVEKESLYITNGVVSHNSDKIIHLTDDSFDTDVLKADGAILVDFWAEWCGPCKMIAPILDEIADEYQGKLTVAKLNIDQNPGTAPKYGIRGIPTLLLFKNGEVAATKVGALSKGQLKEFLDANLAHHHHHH
Chain of MBP-M1^C-Ubc9-H6 (P63280 other isoform, or with tags, fused parts or gaps): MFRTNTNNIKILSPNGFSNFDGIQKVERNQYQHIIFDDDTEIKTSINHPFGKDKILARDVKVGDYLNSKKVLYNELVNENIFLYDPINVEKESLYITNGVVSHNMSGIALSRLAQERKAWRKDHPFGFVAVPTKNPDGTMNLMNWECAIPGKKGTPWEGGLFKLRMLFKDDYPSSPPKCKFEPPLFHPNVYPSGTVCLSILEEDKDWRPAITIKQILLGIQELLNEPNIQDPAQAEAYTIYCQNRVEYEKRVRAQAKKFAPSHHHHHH
Chain of MBP-M1^C-Gluc-H6 (Gaussia princeps) (main, as listed by the source): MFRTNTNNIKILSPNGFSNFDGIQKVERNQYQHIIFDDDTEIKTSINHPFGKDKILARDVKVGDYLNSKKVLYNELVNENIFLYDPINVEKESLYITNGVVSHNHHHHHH
Chain of MBP-M1^C-EGFP-H6 (main, as listed by the source): as above
Chain of MBP-M1^C-mRFP-H6 (main, as listed by the source): as above

For the molecule {FI}-KKEFECVYGDTMVETEDGKIKIEDLYKRLA [pepWT^N (FI-KKEFE-IntN), synthetic peptide with the Int^N of the AceL-TerL intein], the “yield of the N-terminally labelled splice product after 3 h at 8° C.” value in experiment [1], in experiment [3], in experiment [4], in experiment [5] and in experiment [6] was ~80% throughout. Also, in experiment [2], the “splicing rate at 37° C. against 8° C.” value is ~50 fold slower. Further, the “t½ of splicing at 8° C.” value in experiment [2] came out at 7.2 min.

Values taken from patent US20160319287A1 (WESTF LISCHE WILHELMS UNIVERSIT T M NSTER, published 2016).
